This is an account of results in patent publication US20190338034A1 (Genentech, published 2019).

Changes are numbered by the printed parent chain.

Experiment [1] has as its target T1, atezolizumab (anti-PD-L1 antibody).
T1 construct: Full IgG/Ig kappa antibody as used in the IFE gel shift assays; also called anti-PDL1 antibody atezolizumab
Put plainly: immunofixation electrophoresis (Sebia IFE) gel shift, atezolizumab 1500 µg/mL in PBS pre-incubated 2 h with anti-ID antibody. (A gel shift assay detects complexes by their altered migration in electrophoresis.)

In experiment [2] the target is T2, anti-PDL1 Fab (Fab of anti-PD-L1 antibody atezolizumab).
T2 construct: Fab format (Genentech); also called anti-PDL1 antibody Fab
Nature of the experiment: SPR (BIAcore), anti-idiotypic antibody captured by anti-mouse-Fc on CM5 chip, 500 nM anti-PDL1 Fab injected, 25 C, 1:1 Langmuir model. The method, then: (§1) Binding affinities of anti-PDL1 anti-ID antibodies were measured by Surface Plasmon Resonance (SPR) using a BIAcore™-[…] instrument. Anti-idiotypic antibodies were captured by an anti-mouse-Fc antibody coated on CM5 biosensor chips to achieve approximately 200 response units (RU). For kinetics measurements, 500 nM of anti-PDL1 Fab or framework control Fab (YW167B.43) (Genentech, South San Francisco, Calif.) were injected in HBS-P+ buffer (0.1M HEPES, 1.5M NaCl, 0.5% Surfactant P20—GE Life Science) at 25° C. with a flow rate of […]. Association rates (kₐ) and dissociation rates (kd) were calculated using a simple one-to-one Langmuir binding model (BIAcore Evaluation Software version 3.2). The equilibrium dissociation constant (KD) was calculated as the ratio koff/kₒₙ. See also FIG. 3-5.
(SPR reads the build-up and loss of mass on a sensor chip optically.)

In experiment [3] the target is T2, anti-PDL1 Fab (Fab of anti-PD-L1 …). Put plainly: SPR (BIAcore), anti-ID captured by anti-mouse-Fc on a CM5 chip, anti-PDL1 antibody Fab injected at 500 nM, 25 °C, 1:1 binding model. The method, then:
as §1

Experiment [4] deals with T3, YW167B.43 Negative Control.
T3 construct: also called framework control Fab
Nature of the experiment: SPR (BIAcore), anti-ID captured, YW167B.43 negative control Fab injected at 500 nM, 25 °C. The software prints this 1:1 fit under a flat sensorgram with no response. The method, then: as §1

In experiment [5] the target is T3, YW167B.43 Negative Control. Put plainly: SPR (BIAcore), anti-ID captured, YW167B.43 negative control Fab injected at 500 nM, 25 °C. The software prints this 1:1 fit under a flat sensorgram with no positive response. As to the method: as §1

Usually Kd stands for the concentration at which binding is half-saturated. High values mean weaker binding, low ones tighter binding. For orientation: koff means the rate constant with which the complex falls apart. As a reminder, the kon is the rate constant with which the complex forms. Lower therefore signals slower complex formation.

B1: anti-idiotypic anti-PD-L1 antibody 105D11 (antibody, mouse IgG2a, kappa, V domains shown)
VH: EVQLVETGGGLVKPGGSLKLSCAASGFAFSSYDMSWVRQTPEKRLEWVAYISSGGGSTYYPDTVKGRFTISRDNAKNTLYLQMSSLKSEDTAMYYCARLVYYDYDDAMDYWGQGTSVTVSS
VL: DIVLTQSPAIMSASPGEKVTITCSASSSVSYMHWFQQKPGTSPKLWIYSTSNLASGVPARFSGSGSGTSYSLTISRMEAEDAATYYCQQRSSYPPTFGGGTRLEIKR
notes: Mouse monoclonal from a hybridoma
Consider B1, for which the binding result in experiment [1] is “binds”. Also, the Kd was determined as 16.5 nM in experiment [2], 17.5 nM in experiment [3] and 31.7 nM in experiment [4]. The koff in experiment [2] stood at 0.0045 s⁻¹; in experiment [3] it was 0.00648 s⁻¹; in experiment [4], 1.66 s⁻¹. The kon was 279000 M⁻¹ s⁻¹ in experiment [2], 370000 M⁻¹ s⁻¹ in experiment [3] and 5.23e+07 M⁻¹ s⁻¹ in experiment [4].

B2: anti-idiotypic anti-PD-L1 antibody 48C1 (antibody, mouse IgG2a, kappa, V domains shown)
VH: B1 VH with T7S, L99T, V100I, D103G, A107V
VL: B1 VL with D1Q, S92G, R102K
notes: Mouse monoclonal from a hybridoma; also called atezolizumab anti-idiotypic mouse mAB clone 48C1; atezolizumab anti-ID antibody 48C1
For B2, the binding result in experiment [1] is on record as “binds”. Besides, in experiment [2], the Kd was determined as 2.31 nM, the off-rate constant (koff) was determined as 0.000977 s⁻¹ and the kon stood at 421000 M⁻¹ s⁻¹. In experiment [3], this molecule registered a Kd of 2.64 nM, a koff of 0.000949 s⁻¹ and a kon of 360000 M⁻¹ s⁻¹. Besides, in experiment [5], the Kd was 127 nM, the koff was found to be 0.000421 s⁻¹ and the on-rate (kon) is 3310 M⁻¹ s⁻¹.

B3: anti-idiotypic anti-PD-L1 antibody 43B5 (antibody, mouse IgG2a, kappa, V domains shown)
VH: EVQLQQSGPELVKPGASVKISCKASGYSFTDYIMLWVKQSHGKSLEWIGNINPYYGSTSYNLKFKGKATLTVDKSSSTAYMQLNSLTSEDSAVYYCARWGGNYEGWFAYWGQGTLVTVSA
VL: DIKMTQSPSSMSVSLGDTVSITCHASQGISSNIGWLQQKPGKSFKGLIYHGTNLEDGVPSRFSGSGSGADYSLTISSLESEDFADYYCVQYAQFPLTFGAGTKLELKR
notes: as for B1
For the molecule B3, the binding result in experiment [1] is “binds”. In experiment [2], this molecule gave a Kd of 90.7 nM, an off-rate (koff) of 0.00862 s⁻¹ and a kon of 95000 M⁻¹ s⁻¹. In experiment [3], the Kd was determined as 89 nM, the koff stood at 0.00878 s⁻¹ and the kon is 98600 M⁻¹ s⁻¹. In addition, in experiment [4], the Kd was 0.222 nM, the koff stood at 0.000128 s⁻¹ and the kon was 574000 M⁻¹ s⁻¹.
